Laboratory results as given in patent publication US20070253950A1.

Legend:
[1] = molecular target: human RAGE-strep tag fusion protein (human) (UniProt Q15109); assay: BIACORE capture assay: hRAGE-SA over antibody captured on anti-human Fc; steady state affinity; FC2
[2] = molecular target: human RAGE-strep tag fusion protein (human) (UniProt Q15109); assay: BIACORE capture assay: hRAGE-SA over antibody captured on anti-human Fc; steady state affinity; FC3
[3] = molecular target: human RAGE-strep tag fusion protein (human) (UniProt Q15109); assay: BIACORE capture assay: hRAGE-SA over antibody captured on anti-human Fc; steady state affinity; FC4
[4] = molecular target: human RAGE-strep tag fusion protein (human) (UniProt Q15109); assay: BIACORE capture assay: hRAGE-SA over antibody captured on anti-human Fc; 1:1 Langmuir global fit; FC2
[5] = molecular target: human RAGE-strep tag fusion protein (human) (UniProt Q15109); assay: BIACORE capture assay: hRAGE-SA over antibody captured on anti-human Fc; 1:1 Langmuir global fit; FC3
[6] = molecular target: human RAGE-strep tag fusion protein (human) (UniProt Q15109); assay: BIACORE capture assay: hRAGE-SA over antibody captured on anti-human Fc; 1:1 Langmuir global fit; FC4
[7] = molecular target: human RAGE-strep tag fusion protein (human) (UniProt Q15109); assay: BIACORE capture assay: hRAGE-SA over antibody captured on anti-human Fc; steady state affinity; average of FC2-FC4
[8] = molecular target: murine RAGE-strep tag fusion protein (murine) (UniProt Q62151); assay: BIACORE capture assay: mRAGE-SA (SA-Mu RAGE) over antibody captured on anti-human Fc; 1:1 Langmuir global fit; FC2
murine RAGE-strep tag fusion protein (murine), sequence (Q62151 other isoform, or with tags, fused parts or gaps): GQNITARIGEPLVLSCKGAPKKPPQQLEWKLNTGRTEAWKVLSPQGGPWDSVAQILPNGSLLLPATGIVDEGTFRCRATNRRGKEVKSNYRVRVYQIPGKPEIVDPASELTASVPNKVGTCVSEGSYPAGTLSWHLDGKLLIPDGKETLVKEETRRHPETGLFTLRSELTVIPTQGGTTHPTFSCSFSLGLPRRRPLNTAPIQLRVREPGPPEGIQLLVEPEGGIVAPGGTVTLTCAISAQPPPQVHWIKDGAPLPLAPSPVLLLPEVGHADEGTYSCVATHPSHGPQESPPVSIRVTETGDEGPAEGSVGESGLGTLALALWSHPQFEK

[9] = molecular target: murine RAGE-strep tag fusion protein (murine) (UniProt Q62151); assay: BIACORE capture assay: mRAGE-SA (SA-Mu RAGE) over antibody captured on anti-human Fc; 1:1 Langmuir global fit; FC3
[10] = molecular target: murine RAGE-strep tag fusion protein (murine) (UniProt Q62151); assay: BIACORE capture assay: mRAGE-SA (SA-Mu RAGE) over antibody captured on anti-human Fc; 1:1 Langmuir global fit; FC4
[11] = molecular target: human RAGE-strep tag fusion protein (human) (UniProt Q15109); assay: BIACORE capture assay: hRAGE-SA over antibody captured on anti-human Fc; 1:1 Langmuir global fit; average of FC2-FC4
[12] = molecular target: murine RAGE-strep tag fusion protein (murine) (UniProt Q62151); assay: BIACORE capture assay: mRAGE-SA (SA-Mu RAGE) over antibody captured on anti-human Fc; 1:1 Langmuir global fit; average of FC2-FC4

human RAGE-strep tag fusion protein (human), sequence (Q15109 other isoform, or with tags, fused parts or gaps): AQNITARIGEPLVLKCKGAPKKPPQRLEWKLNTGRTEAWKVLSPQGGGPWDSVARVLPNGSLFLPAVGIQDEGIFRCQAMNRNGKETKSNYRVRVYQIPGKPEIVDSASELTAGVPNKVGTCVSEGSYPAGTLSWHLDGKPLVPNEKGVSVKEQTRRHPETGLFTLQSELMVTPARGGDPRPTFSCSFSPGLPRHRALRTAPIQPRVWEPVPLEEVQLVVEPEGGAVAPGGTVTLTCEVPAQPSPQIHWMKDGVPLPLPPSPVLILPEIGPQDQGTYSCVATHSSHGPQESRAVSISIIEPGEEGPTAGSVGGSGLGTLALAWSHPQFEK

B1: XT-M4-V10 (antibody, from a related filing, V domains shown)
VH: EVQLVESGGGLVQPGGSLRLSCAASGFTFNNYWMTWVRQAPGKGLEWVASIDNSGDNTYYPDSVKDRFTISRDNAKNSLYLQMNSLRAEDTAVYYCARGGDITTGFDYWGQGTLVTVSS
VL: DIQMTQSPSSLSASVGDRVTITCRASQDVGIYVNWFQQKPGKAPKRLIYRATNLADGVPSRFSGSGSGTDFTLTISSLQPEDFATYYCLEFDEHPLTFGGGTKVEIK
B1 gave a Kd [1] of 25 nM, a Kd [2] of 24 nM and a Kd [3] of 26 nM. The Kd [4] was 31.8 nM, the koff [4] was 0.00972 s⁻¹ and the kon [4] was 306000 M⁻¹ s⁻¹. For the same binder, the Kd [5] was 18.2 nM, the koff [5] was 0.0569 s⁻¹ and the kon [5] was 3.13e+06 M⁻¹ s⁻¹. It also gave a Kd [6] of 20.3 nM, a koff [6] of 0.0704 s⁻¹ and a kon [6] of 3.47e+06 M⁻¹ s⁻¹. It also gave a Kd [7] of 25 nM, a Kd [8] of 3 nM and a koff [8] of 0.0078 s⁻¹. The kon [8] was 2.6e+06 M⁻¹ s⁻¹, the Kd [9] was 2.9 nM and the koff [9] was 0.0076 s⁻¹. The kon [9] was 2.6e+06 M⁻¹ s⁻¹, the Kd [10] was 3 nM and the koff [10] was 0.0078 s⁻¹. For the same binder, the kon [10] was 2.6e+06 M⁻¹ s⁻¹, the Kd [11] was 23.4 nM and the koff [11] was 0.0457 s⁻¹. It also gave a kon [11] of 2.3e+06 M⁻¹ s⁻¹, a Kd [12] of 3 nM and a koff [12] of 0.0077 s⁻¹. It also gave a kon [12] of 2.6e+06 M⁻¹ s⁻¹.

B2: XT-M4-V11 (antibody, from a related filing, V domains shown)
VH: EVQLVESGGGLVQPGGSLRLSCAASGFTFNNYWMTWVRQAPGKGLEWVASIDNSGDNTYYPDSVKDRFTISRDNAKNSLYLQMNSLRAEDTAVYYCARGGDITTGFDYWGQGTLVTVSS
VL: DIQMTQSPSSLSASVGDRVTITCRASQDVGIYVNWFQQKPGKAPRRLIYRATNLADGVPSRFSGSRSGTDFTLTISSLQPEDFATYYCLEFDEHPLTFGGGTKVEIK
B2 gave a Kd [1] of 16 nM, a Kd [2] of 15 nM and a Kd [3] of 17 nM. The Kd [4] was 13 nM, the koff [4] was 0.033 s⁻¹ and the kon [4] was 2.5e+06 M⁻¹ s⁻¹. The Kd [5] was 12 nM, the koff [5] was 0.039 s⁻¹ and the kon [5] was 3.4e+06 M⁻¹ s⁻¹. For the same binder, the Kd [6] was 13 nM, the koff [6] was 0.041 s⁻¹ and the kon [6] was 3.2e+06 M⁻¹ s⁻¹. The Kd [7] was 16 nM, the Kd [8] was 2 nM and the koff [8] was 0.0043 s⁻¹. The kon [8] was 2.2e+06 M⁻¹ s⁻¹, the Kd [9] was 2 nM and the koff [9] was 0.0042 s⁻¹. It also gave a kon [9] of 2.1e+06 M⁻¹ s⁻¹, a Kd [10] of 2 nM and a koff [10] of 0.0041 s⁻¹. For the same binder, the kon [10] was 2e+06 M⁻¹ s⁻¹, the Kd [11] was 12.5 nM and the koff [11] was 0.0374 s⁻¹. For the same binder, the kon [11] was 3.01e+06 M⁻¹ s⁻¹, the Kd [12] was 2 nM and the koff [12] was 0.0042 s⁻¹. It also gave a kon [12] of 2.1e+06 M⁻¹ s⁻¹.

B3: XT-M4-V14 (antibody, from a related filing, V domains shown)
VH: EVQLVESGGGLVQPGGSLRLSCAASGFTFNNYWMTWVRQAPGKGLEWVASIDNSGDNTYYPDSVKDRFTISRDNAKNSLYLQMNSLRAEDTAVYYCARGGDITTGFDYWGQGTLVTVSS
VL: DIQMTQSPSSLSASVGDRVTITCRASQDVGIYVNWFQQKPGKAPKRLIYRATNLADGVPSRFSGSRSGTDFTLTISSLQPEDFATYYCLEFDEHPLTFGGGTKVEIK
Work on B3 yielded a Kd [1] of 16 nM, a Kd [2] of 15 nM and a Kd [3] of 16 nM. For the same binder, the Kd [4] was 13.8 nM, the koff [4] was 0.0366 s⁻¹ and the kon [4] was 2.66e+06 M⁻¹ s⁻¹. For the same binder, the Kd [5] was 11.7 nM, the koff [5] was 0.0464 s⁻¹ and the kon [5] was 3.96e+06 M⁻¹ s⁻¹. It also gave a Kd [6] of 13.2 nM, a koff [6] of 0.0661 s⁻¹ and a kon [6] of 5.02e+06 M⁻¹ s⁻¹. The Kd [7] was 16 nM, the Kd [8] was 2 nM and the koff [8] was 0.0043 s⁻¹. It also gave a kon [8] of 2.2e+06 M⁻¹ s⁻¹, a Kd [9] of 1.9 nM and a koff [9] of 0.004 s⁻¹. The kon [9] was 2.1e+06 M⁻¹ s⁻¹, the Kd [10] was 2 nM and the koff [10] was 0.0041 s⁻¹. For the same binder, the kon [10] was 2.1e+06 M⁻¹ s⁻¹, the Kd [11] was 12.9 nM and the koff [11] was 0.0497 s⁻¹. It also gave a kon [11] of 3.88e+06 M⁻¹ s⁻¹, a Kd [12] of 2 nM and a koff [12] of 0.0042 s⁻¹. It also gave a kon [12] of 2.1e+06 M⁻¹ s⁻¹.
